Assay [1] concerns endogenous eIF4E. In words: Coimmunoprecipitation / m7GTP pull-down with endogenous eIF4E in S2 cell lysates. Conditions: western blot. It counts as cell-based, Drosophila melanogaster. The procedure:
The coimmunoprecipitations assays were performed as previously described. For the pull downs using m^7GTP beads, 25 μl of immobilized γ-aminophenyl-m^7GTP (C10-spacer—Jena Bioscience) beads was added to the cell lysates and the mixtures were rotated for 1 h at 4 °C. The beads were washed three times with NET buffer (50 mM Tris (pH 7.4), 150 mM NaCl, 1 mM EDTA and 0.1% Triton X-100). The bound proteins were eluted with 2 × SDS–polyacrylamide gel electrophoresis (SDS–PAGE) sample buffer and analyzed by western blotting (WB). All of the WB experiments were developed with the ECL western blotting detection system (GE Healthcare) as recommended by the manufacturer. The antibodies used in this study are listed in Supplementary Table 2.
Thor and 4E-T) or HA-eIF4G and endogenous eIF4E in S2 cell lysates. The proteins were immunoprecipitated using a polyclonal anti-eIF4E antibody (α-4E). The pre-immune (Pre-I) serum and an HA-tagged version of MBP served as negative controls. The inputs (1%) and immunoprecipitates (10%) were analyzed by western blotting using anti-HA and anti-eIF4E antibodies. (b,c) The interaction of HA-tagged full length 4E-BPs (CUP, Thor and 4E-T) and eIF4G with endogenous eIF4E was analyzed by coimmunoprecipitation using anti-HA antibodies (b) or by pull-down using m7GTP-Sepharose beads (c). HA-MBP served as a negative control. The inputs (10%) and immunoprecipitates (30%) were analyzed by western blotting using anti-HA and anti-eIF4E antibodies. (d) Western blot showing the interaction of HA-Thor (full-length either wild-type or mutants) with endogenous eIF4E in S2 cells. The proteins were immunoprecipitated using anti-HA antibodies and analyzed as described in (b,c). (e) Western blot showing the interaction of HA-4E-T (residues 1–511, wild-type or mutants) with endogenous eIF4E. The proteins were immunoprecipitated using anti-HA antibodies and analyzed as described in (b,c). The size markers (kDa) are shown to the right of each panel. Mutants are described in Supplementary Table 1.
On the technique in general: In western blotting, separated proteins are transferred to a membrane and probed.

The target of assay [2] is T1, eIF4E (residues 69–248), purified (Drosophila melanogaster, UniProt P48598-2 69-248).
T1 construct: eIF4E, Drosophila melanogaster, residues 69–248; the methods say the tag was cleaved with HRV3C; also called truncated eIF4E; eIF4E trunc; not shown: His6, N-terminal, cleaved
T1 sequence (looked up): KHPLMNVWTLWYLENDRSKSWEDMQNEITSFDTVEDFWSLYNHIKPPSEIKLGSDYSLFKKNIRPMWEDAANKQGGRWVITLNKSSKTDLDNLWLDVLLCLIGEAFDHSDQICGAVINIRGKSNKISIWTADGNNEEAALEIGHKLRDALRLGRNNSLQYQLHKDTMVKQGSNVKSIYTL
In words: ITC; VP-ITC, 20 °C; eIF4E (69–248, WT or mutant, 1–20 μM) in the cell, tenfold concentrated GB1-stabilized peptides titrated in; 20 mM Na-phosphate pH 7.0, 150 mM NaCl; one-site binding model. Conditions: both partners purified.

For assay [3], the target named is T2, eIF4E (residues 69–248) II-AA, purified (Drosophila melanogaster, UniProt P48598-2 69-248, Ile96 to Ala (II-AA) | Ile112 to Ala (II-AA)).
T2 construct: eIF4E, Drosophila melanogaster, residues 69–248; also called eIF4E (II-AA); not shown: His6, N-terminal, cleaved
T2 sequence (looked up): T1 sequence (looked up) with I28A, I44A
The assay is described as above. The settings on record: both partners purified.

The target of assay [4] is T3, SHN-eIF4E (full length, WT) (Drosophila melanogaster, UniProt P48598-2 1-248).
T3 construct: eIF4E, Drosophila melanogaster; also called SHN-tagged eIF4E; SNH-tagged eIF4E; not shown: Strep-NusA-His (SHN), N-terminal, kept
T3 sequence (looked up): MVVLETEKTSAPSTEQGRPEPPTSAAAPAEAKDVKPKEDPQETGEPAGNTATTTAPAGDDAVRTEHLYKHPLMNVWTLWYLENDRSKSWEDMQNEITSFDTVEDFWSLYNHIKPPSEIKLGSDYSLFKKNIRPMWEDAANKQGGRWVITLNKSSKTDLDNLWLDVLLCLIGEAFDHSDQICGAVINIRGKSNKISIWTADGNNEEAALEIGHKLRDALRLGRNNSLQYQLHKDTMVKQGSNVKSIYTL
In words: pull-down; 'kinetic assay': 1 μM purified SHN-eIF4E–GST-eIF4G complex prebound to Strep-Tactin beads, challenged with 5 μM (CUP, 4E-T) or 10 μM (Thor, eIF4G) competitor for the indicated times; 4 °C. Conditions: both partners purified.

For assay [5], the system named is firefly luciferase (F-Luc) reporter in S2 cells. In words: Translation repression assay, F-Luc reporter in S2 cells. It counts as cell-based, Drosophila melanogaster. The settings on record: coexpression (HA-CUP 1–402 0.05–0.2 μg, HA-Thor 0.1–0.5 μg plasmid; mutants at highest), 3 days, F-Luc activity normalized to mRNA, three independent experiments. The procedure:
S2 cells were transfected in 6-well plates using Effectene transfection reagent (Qiagen) according to the manufacturers protocol. The transfection mixtures contained: 0.1 μg of F-Luc reporter plasmid (F-Luc-V5), 0.3 μg of control RNA reporter, and increasing amounts of plasmids expressing HA-CUP (fragment 1–402; 0.05–0.2 μg) and HA-Thor (full length, 0.1–0.5 μg). The plasmids expressing the corresponding mutants or the HA peptide control were transfected at the highest concentration. In all the experiments, the cells were collected three days after transfection. The F-Luc activity was measured using the Dual-Luciferase reporter assay system (Promega). The northern blotting was performed as previously described. The F-Luc mRNA levels were determined by northern blotting and were normalized to those of the control RNA. The normalized F-Luc mRNA levels were then used to normalize the F-Luc activity, to obtain translation efficiencies.

Positions count from the first letter of the chain named. Names may count otherwise.

The Kd is the free concentration of one partner at which half of the binding sites on the other are occupied at equilibrium, for simple one-to-one binding. A high value points to a looser complex. As usually defined, the stoichiometry N is a count of units in the complex or per binding partner.

B1: Thor R,G,T: Thor R81A, G82A, T83A (protein, UniProt Q9XZ56 1-117, looked up, variant R81A G82A T83A)
Eukaryotic translation …: MSASPTARQAITQALPMITRKVVISDPIQMPEVYSSTPGGTLYSTTPGGTKLIYERAFMKNLRGSPLSQTPPSNVPSCLLAAAPRTPFRKCVPVPTELIKQTKSLKIEDQEQFQLDL
For the molecule B1, in assay [1], the “interaction with endogenous eIF4E (in words)” value is on record as “ineffective”.

B2: CUP C+NC peptide fused C-terminally to GB1 (domain or fragment, Drosophila melanogaster)
chain: STGIHKPGSLRAPKAVRPTTAPVVSSKPVKSYTRSRLMDIRNGMFNALMHRSKESFVMPRIATCDDIELEGRLRRMNIWRTSDGTRFRTRSTTANLNMNNNNNNECMPAFFKNKNKPNLISDESIIQSQP
notes: CUP, Drosophila melanogaster, canonical and non-canonical 4E-BMs; source: E. coli BL21 Star (DE3), purified (amylose, HRV3C cleavage, SEC); not shown: MBP, N-terminal, cleaved; GB1, C-terminal, kept
On to B2, for which, in assay [2], the Kd worked out at 9.1 nM, the dH was -34.5 ± 0.35 kcal/mol and the “stoichiometry N” value is 1.05 ± 0.02. Moreover, in assay [3], the Kd stood at 50 nM, the dH was -18.6 ± 0.7 kcal/mol and the “stoichiometry N” value is 0.98 ± 0.01. The “time to 50% dissociation of prebound GST-eIF4G (fivefold molar excess of competitor)” value in assay [4] worked out at 2.5 ± 0.5 min.

B3: CUP N-terminal fragment: CUP residues 1–402 (protein, UniProt Q9VMA3 1-402, looked up, fragment)
chain: MQMAEAEQENGAGALKIATNAGATDRPAHQQLPLPVEDQQDEVLTPAEKGKFEYPPPPPPPTPVQAPLATKATALNASQEHDDDEANSEKWEDPCAPPPPPPLPTSAFLATGLGYLKLPAFKLKDALEKAITKLEANKRTLKASPESSRSIKNKNVVALEMLPRRSNPETIGDGSMLASTSTAVMLQTKKPAVIVEMERRCKIINLLAKQNQILESISGEAIPMHGPSKHLHEDEGLTLQVLSARASTPYTQPSSMLSCTAVSCDLEHDSPRKQVASKEAVPEQQSSQVQQKRPPSTGIHKPGSLRAPKAVRPTTAPVVSSKPVKSYTRSRLMDIRNGMFNALMHRSKESFVMPRIATCDDIELEGRLRRMNIWRTSDGTRFRTRSTTANLNMNNNNNNECM
modifications: HA tag
For B3, the “repression of F-Luc reporter expression (in words)” value in assay [5] is “inhibited the expression of the F-Luc reporter in a dose-dependent manner”.

In the case of RYSKVDLLALRYEGKSRQRPQCSTRLELQTLGFWKI (domain or fragment) [4E-T C+NC peptide fused C-terminally to GB1], in assay [2], the affinity, expressed as Kd, was 5.6 nM; the dH was -22.8 ± 3 kcal/mol; the “stoichiometry N” value is 0.95 ± 0.01. Also, in assay [3], binding was characterised by a dissociation constant (Kd) of 8.8 nM, the dH is -12.9 ± 0.3 kcal/mol and the “stoichiometry N” value was 1.03 ± 0.04. Further, in assay [4], the “time to 50% dissociation of prebound GST-eIF4G (fivefold molar excess of competitor)” value was determined as 22 min.

Take TKLIYERAFMKNLRGSPLSQTPPSNVPSCLLRGT (domain or fragment) [Thor C+NC peptide fused C-terminally to GB1]: in assay [2], the Kd turned out to be 1.4 nM, the dH was -16.8 ± 1 kcal/mol and the “stoichiometry N” value came out at 0.95 ± 0.02. Also, in assay [3], the Kd came out at 470 nM, the dH is -7.6 ± 0.3 kcal/mol and the “stoichiometry N” value was 0.97 ± 0.01. The “half-life of the eIF4E–eIF4G complexes (tenfold molar excess of competitor)” value in assay [4] is 37 ± 9 min.

B4: eIF4G peptide (residues 578–650) fused C-terminally to GB1 (domain or fragment, Drosophila melanogaster, UniProt O61380 578-650, looked up)
chain: PETTLNDKQDSTDLKVKVSAKISSIINYNEGQWSPNNPSGKKQYDREQLLQLREVKASRIQPEVKNVSILPQP
notes: eIF4G, Drosophila melanogaster, residues 578–650 (methods and legends); source: E. coli BL21 Star (DE3), purified (amylose, TEV cleavage, anion exchange, SEC); not shown: MBP, N-terminal, cleaved; GB1, C-terminal, kept
For B4, in assay [2], the Kd turned out to be 17 nM, the dH was -18.5 ± 2 kcal/mol and the “stoichiometry N” value was determined as 0.99 ± 0.08. Moreover, in assay [3], binding was put at a Kd of 40 nM, the dH was -16.24 ± 0.04 kcal/mol and the “stoichiometry N” value came to 1.03 ± 0.01. For the same molecule, the “time to 50% dissociation of prebound GST-eIF4G (tenfold molar excess of competitor)” value in assay [4] is 4 h.

The values above are taken from article PMC4164784, “4E-BPs require non-canonical 4E-binding motifs and a lateral surface of eIF4E to repress translation” (Nature Communications, 2014).
